{"source": "paper PMC7187929", "about": "(Biochimica et biophysica acta. Bioenergetics, 2017)", "key": {"[1]": {"target": "HtSH (soluble NAD+-reducing [NiFe]-hydrogenase, HoxFUYH) (Hydrogenophilus thermoluteolus, UniProt A0A077L6X8)", "sequence (A0A077L885 1-242 partner, one chain of several)": "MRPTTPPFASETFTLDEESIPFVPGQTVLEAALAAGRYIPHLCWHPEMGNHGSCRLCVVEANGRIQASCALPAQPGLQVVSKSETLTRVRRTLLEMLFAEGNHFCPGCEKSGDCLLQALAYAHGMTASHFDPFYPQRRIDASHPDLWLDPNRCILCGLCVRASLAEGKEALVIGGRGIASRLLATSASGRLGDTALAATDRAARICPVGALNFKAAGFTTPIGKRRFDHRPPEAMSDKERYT", "sequence (A0A077L7R5 1-189 partner, one chain of several)": "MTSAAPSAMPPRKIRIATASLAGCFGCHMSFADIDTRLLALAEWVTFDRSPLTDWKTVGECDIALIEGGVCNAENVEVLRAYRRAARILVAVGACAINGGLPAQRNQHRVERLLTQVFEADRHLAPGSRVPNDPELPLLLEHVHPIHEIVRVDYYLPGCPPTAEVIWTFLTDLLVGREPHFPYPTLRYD", "sequence (A0A077LAI5 1-468 partner, one chain of several)": "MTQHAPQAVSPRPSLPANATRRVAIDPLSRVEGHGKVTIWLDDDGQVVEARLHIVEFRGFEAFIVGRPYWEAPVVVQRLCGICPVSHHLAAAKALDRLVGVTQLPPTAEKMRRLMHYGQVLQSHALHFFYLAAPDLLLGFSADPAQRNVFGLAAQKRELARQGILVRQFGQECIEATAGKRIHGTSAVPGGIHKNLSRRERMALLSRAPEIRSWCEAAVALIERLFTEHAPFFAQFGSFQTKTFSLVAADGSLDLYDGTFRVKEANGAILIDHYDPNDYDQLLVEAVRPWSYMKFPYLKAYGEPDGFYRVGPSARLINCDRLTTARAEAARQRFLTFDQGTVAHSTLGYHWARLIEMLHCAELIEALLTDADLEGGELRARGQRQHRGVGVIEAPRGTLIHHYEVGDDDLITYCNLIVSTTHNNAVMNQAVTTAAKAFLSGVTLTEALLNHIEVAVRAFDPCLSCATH", "experiment": "fluorometric FMN determination in purified protein", "type": "binding", "settings": "bound cofactor content of purified enzyme"}, "[2]": {"target": "HoxFU module of HtSH (Hydrogenophilus thermoluteolus TH-1T) (Hydrogenophilus thermoluteolus TH-1T)", "experiment": "co-purification"}, "purified protein [3]": {"substrate": "NC(=O)c1ccc[n+]([C@@H]2O[C@H](COP(=O)(O)OP(=O)(O)OC[C@H]3O[C@@H](n4cnc5c(N)ncnc54)[C@H](O)[C@@H]3O)[C@@H](O)[C@H]2O)c1", "experiment": "purified protein", "settings": "H2 as electron donor, 50 °C, kcat at pH 6.5"}, "purified protein [4]": {"substrate": "NC(=O)C1=CN([C@@H]2O[C@H](COP(=O)(O)OP(=O)(O)OC[C@H]3O[C@@H](n4cnc5c(N)ncnc54)[C@H](O)[C@@H]3O)[C@@H](O)[C@H]2O)C=CC1", "experiment": "purified protein", "settings": "benzyl viologen as electron acceptor, 50 °C"}}}
{"molecule": "Cc1cc2nc3c(=O)[nH]c(=O)nc-3n(C[C@H](O)[C@H](O)[C@H](O)COP(=O)(O)O)c2cc1C", "note": "[FMN]", "values": [{"measurement": "FMN per SH tetramer", "setting": "[1]", "result": 1.07, "unit": "mol/mol"}]}
{"molecule": "HoxYH module of HtSH (Hydrogenophilus thermoluteolus TH-1T) (from UniProt A0A077L7R5 1-189) (complex)", "values": [{"measurement": "stoichiometry N", "setting": "[2]", "result": 1}]}
{"molecule": "HtSH (soluble NAD+-reducing [NiFe]-hydrogenase, HoxFUYH) (Hydrogenophilus thermoluteolus) (protein) MTTERQRTAPGLLAALHQARSRFGRPLDAQALAELSTAFSLPPGEIAATASFYHFFQTPPARYQIHFVDHVVDHHAGVAALCNHLCAAFAIQPGQRTADARLFVGWTACAGLSDQAPAALINGRPMPRLDAARIDALIEKIQAQIPMDQWPTEWFAVTNAIHRHGPLLTWLDTTPAEAVFEHPTAHDPDAILQAVTDAGLRGRGGAGFPTATKWRFCRENADPERFLICNADEGEPGTFKDRVLLTRYPEHLFAGMILAARAIGADKAILYLRYEYQYLLPQLEAARERIASAQATVPQAERVTLEIALGAGAYVCGEESALIESLEGKPGRPRVRPPYPVTQGYLGHPTVVNNVETLVAVAAIVGNGAAWWRALGTPDSSGPKLFCVSGDVAQPGLYEFPYGVALGDVVTAARPLGTRYAVQVSGPSGTLLPATPEQLARPLAFEALPCNGTVMVFDVRRDPVAIVHHFARFFAHESCGFCTPCRVGTQLIAKTFEKIAAGYATRFDLERLAPALEAMRLASNCGFGLSAGNPVRDLIAHFRQQLEAQLQPHDFIPAFSLDAELAATRRLTGRDDPHAHLAQFEQPEVTR", "values": [{"measurement": "Km", "setting": "purified protein [3]", "result": 469, "unit": "µM"}, {"measurement": "Km", "setting": "purified protein [4]", "result": 1200, "unit": "µM"}]}
